Measured values: the supplement of paper PMC12042874
± gives the uncertainty stated by the source.

test: amyloid nucleation score (Sup35N fusion, yeast selection) (log enrichment); library NNK2; higher = more nucleation; inactive = no reads after selection
Summary of the method: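 Sup35N fusions to peptides of 20 random codons were expressed in psi-negative yeast, induced 24 hours with 100 μM copper sulfate, and grown 7 days at 30°C on medium lacking adenine and uracil. Input and output plasmid inserts were sequenced by Illumina. The nucleation score is the DiMSum log enrichment of output over input reads, centred on the mode score of non-aggregating sequences. Sequences with under 100 input reads were excluded.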

Substance	amyloid nucleation score
VGFSLLNKTLCFGDRCTNIS	inactive
VGGRSGE	-0.159 ± 0.26
VGIEEVIH	-0.249 ± 0.23
VGLFGWRGKEGF	-0.033 ± 0.76
VGLWLTRVPPFVYGYRGSVS	0.165 ± 1
VGPFSDH	-0.472 ± 0.79
VGSFSTVGCR	0.003 ± 0.36
VGSLYICDLAPGKHKYCSVV	0.266 ± 0.56
VGSNKGAIIGLMVGGMVVIA	2.33 ± 0.21
VGTISVFIIFHASHVGILHS	-1.65 ± 0.53
VGTWATFYVLTCKGEFDPGL	7.83 ± 0.083
VGVYICFILGH	3.56 ± 0.14
VGYLRELLYAEGT	-0.476 ± 0.35
VHEPAQV	0.352 ± 0.35
VHFASPRRACRFIRRRYTTH	3.77 ± 0.11
VHLANSMLY	3.15 ± 0.047
VHQRYRSVRCWNWIVM	-0.545 ± 0.48
VHSLFVNIRMLCTDGFASTG	4.479 ± 0.038
VHVVSRAQTCEFF	0.956 ± 0.67
VIDGNKDGSMTFPVQGDALR	1.2 ± 0.48
VIDHLRCIETSVWGVVVWRI	-0.148 ± 0.35
VIFSGFFYISPTADPHDSFI	inactive
VIFVRYWGVDYHLADLVIN	-0.563 ± 0.55
VIIGIFCNSKSS	4.33 ± 0.1
VIKKQCCHTYSVLTFRILNC	0.151 ± 0.63

Substance	amyloid nucleation score
VIKMSVNNVELVGMDHYSCV	0.606 ± 0.23
VILNYVIYL	10.08 ± 0.071
VINGVHLSRVLYNPILEFIT	inactive
VINLDKLIFVLEDNCIVFWE	6.374 ± 0.023
VINSLMWKFTVIMRGVMNRI	0.12 ± 0.25
VINVKEYVGYIVSKVDKGGP	4.24 ± 0.049
VIPYILTCWVYFIDCLWRRK	0.948 ± 0.66
VIPYVIQSYWMGMN	-1.56 ± 0.75
VISGGFMF	4.63 ± 0.069
VITLRGAPYTEWLLRALLAS	0.734 ± 0.81
VIWYLRMVSTCNERGVKGIE	inactive
VIYSYMSGIVYGVMRSSPFW	inactive
VKDDTSHPYRGFYYRVIRRN	1.08 ± 0.16
VKFAGWTCSL	-0.314 ± 0.62
VKFCVWCGD	7.039 ± 0.06
VKLIETSLLSFLIE	-0.33 ± 0.76
VKMMWNCSLVDALATRGNVV	0.505 ± 0.54
VKTRCVVHCMNNFPGCMIEL	6.887 ± 0.065
VLAILVTNLRLSSWFQSHMM	0.837 ± 0.52
VLCTRRLPLYHSSNDQ	0.128 ± 0.32
VLDVVLYPGKF	0.176 ± 0.26
VLEKRFIRL	-0.785 ± 0.46
VLGYPKTSTVHALPHTTMLP	0.943 ± 0.53
VLHCHWTGFSRSTCVHLVHF	3.63 ± 0.084
VLIALKLFWIVQWYICAICV	-0.099 ± 0.39

Substance	amyloid nucleation score
VLLEIY	-0.384 ± 0.65
VLLLGVSVRHFKGLGVPTKR	5.06 ± 0.065
VLLSITSRRVMPTSKI	0.594 ± 0.81
VLMEWTLGVTHDNISDDYSD	2.58 ± 0.082
VLNDFFWEHLPMGHNVGLTL	-0.252 ± 0.55
VLNGNLSFLSAVWFGKM	6.729 ± 0.053
VLNIARVRHDKG	3.7 ± 0.051
VLNITEIYFVG	8.125 ± 0.051
VLRGSFKGFFYRWIKCGFEW	-1.24 ± 0.64
VLRYLDFDYRLELFIYVMHR	-1.48 ± 1.1
VLSDL	-1.18 ± 0.75
VLSNNFWRMSNFWVRMRHTL	-0.25 ± 0.63
VLSSRLASIEGNKSSVGFYG	inactive
VLSYMFVYETMSEIFTFLVG	-0.586 ± 0.49
VLSYRVHLEPARCFSGGYCY	0.512 ± 0.19
VLTLPKRNHVHL	0.874 ± 0.35
VLVLDR	3.46 ± 0.073
VLWNKSALNSKNSRTG	2.57 ± 0.1
VLYQGALRYGNVRRGHLIRF	0.105 ± 1.1
VMCFEYYVYYDYDYTCTFNY	0.842 ± 0.12
VMCFNAVSLTFVFRDMTSYY	8.804 ± 0.05
VMCSWVGDLWFCESIRAQEV	8.035 ± 0.047
VMCTC	0.71 ± 0.48
VMDLDAGTCWCISISGLTVR	0.533 ± 0.35
VMFILVYTLFP	0.068 ± 0.65

Substance	amyloid nucleation score
VMFLFGGCTDNS	0.382 ± 0.8
VMGGDVYTAFTDAEDVDSWG	0.398 ± 0.22
VMSDGMYTGKAYSLVLDMRI	inactive
VMTFMVTRTD	6.111 ± 0.037
VMTYVEQVLGNVSVLIAIIT	0.015 ± 0.33
VMVGLALYLKARGSNVDCGL	3 ± 0.17
VMWLSVRL	0.535 ± 0.44
VNAEGTVMQSWHCHCDMSVL	6.245 ± 0.043
VNCIASSFSLPRRTLSNSMD	inactive
VNDCYIILISIQALKGPICF	0.465 ± 0.8
VNDKFHFILF	0.019 ± 0.8
VNDLLTPCGIHLQPVWDYES	-0.013 ± 0.49
VNGVSMMHKIVLVNR	0.058 ± 1
VNHLYYCFCTLITHEVRVVS	5.363 ± 0.034
VNIILASMHVLLDGCS	-1.08 ± 0.64
VNIVSIVYKGDNN	7.72 ± 0.075
VNLPD	0.15 ± 0.56
VNMLTGLSKDK	-0.142 ± 0.23
VNMYSWVKVCWEILYTDRAG	-0.906 ± 0.41
VNREYLLAVTVILQNVKTEE	8.609 ± 0.036
VNSKNYV	-0.075 ± 0.39
VNTTDKWKVSEYKYQND	0.254 ± 0.19
VNVCTYTWLHVINERFTFQW	6.192 ± 0.045
VNYVDGWV	1.45 ± 0.34
VPIKALLPHSKFGNQSRFNY	0.438 ± 0.4

Substance	amyloid nucleation score
VPSGSLD	inactive
VQDAFVYFNAELRWYDILGQ	-0.201 ± 0.37
VQEERAFKWVR	0.44 ± 0.42
VQGTL	-0.718 ± 0.39
VQPVLCIVSCNRLNRQRAEM	-0.498 ± 1.1
VQRYRVFVAICFCGEMQRGF	inactive
VQSGWTSKGVLPQVANRTLR	0.827 ± 0.44
VRATCWS	-0.418 ± 0.55
VREYYRVERGSFGRISGGCN	-0.748 ± 0.78
VRIIETGRC	0.136 ± 0.39
VRLFLPHIYKMSLRDGGFEP	-0.349 ± 0.63
VRLGRWLFTFSANTDTLANM	-0.729 ± 1.1
VRLHGLLHANMGKTFMLLLS	-0.486 ± 0.56
VRMEVIFYC	2.54 ± 0.2
VRMNPITAGLCVQCLHTQRF	-0.654 ± 1
VRNKMSGPLMFIIGLDLSCN	inactive
VRPRAPSSADNPLQ	0.121 ± 0.49
VRRLLEAFWARKFFLVAITQ	-0.237 ± 0.79
VRVGVWSMTFG	-0.52 ± 0.78
VRWTRILVLIMFYAMSSTGT	2.65 ± 0.073
VRYDCYMPDMCFSRDHCWFE	0.079 ± 0.55
VRYTVTRTRGRYMVKCCENV	0.108 ± 0.2
VSAEWLYTGVWPMRLRSSGV	3.95 ± 0.055
VSDNGFFNRYNMTNCRIHGV	0.449 ± 0.57
VSEIRDFCVVIGF	0.573 ± 0.36

Substance	amyloid nucleation score
VSIPLIISTCASLSVCSMTW	8.067 ± 0.034
VSKSFFIVIV	5.702 ± 0.047
VSLRSDSGLGITVLMPPSRS	1.6 ± 0.44
VSLWVIKASRVNPFYSPGGK	0.301 ± 0.64
VSLYRKGSASKEGGLERATD	0.55 ± 0.3
VSMNDVLYLMCS	-0.556 ± 0.25
VSNRVLEMVSKEVASAKNQL	0.288 ± 0.34
VSPAHPNYFPISP	-0.889 ± 1.1
VSQVMLSK	0.626 ± 0.24
VSRFDA	0.306 ± 0.31
VSSRYCTCRLCHPWYSFWFS	-0.625 ± 0.54
VSSVVLCIIIRDGSMMFYYK	inactive
VSSYCIRML	0.11 ± 0.76
VSVNSGSVKLFVIPACCSYD	6.099 ± 0.055
VSWCFFDHYHSTILKHGTVS	inactive
VSYKWNGEWVRAPFDLQGCI	-0.464 ± 1.1
VTFLGDIRYFRCWCL	9.561 ± 0.077
VTIFILFSLNSGGHGSDRVW	4.849 ± 0.031
VTKVCGYLEFSMQVYRCVFH	inactive
VTLMSV	0.504 ± 0.74
VTLQPFCSARSWLEMNVKFF	4.44 ± 0.066
VTLRTANGDKWKTPASNI	inactive
VTRLFGIREFRG	3.65 ± 0.053
VTRTDVKPKVVGRRRARLCL	0.705 ± 0.44
VTRVWYRTSDCDAYSHGNFL	0.991 ± 0.27

Substance	amyloid nucleation score
VTTKKHPIYTVTRRDRKPGD	0.524 ± 0.32
VTVKYRVVTDVLRTMRNDSV	0.297 ± 0.34
VTVRRCSFFQVY	-0.196 ± 0.41
VTVRSFTNIRSTFKLDSPLL	0.122 ± 0.29
VVCFMPSFYAGPKI	5.281 ± 0.041
VVEGGRFLVDSRWKVVSRGC	-0.719 ± 0.38
VVHSFEWNLRRLSTWWRWGF	0.217 ± 0.31
VVIRCFYGTERNASWLLVCL	-0.059 ± 0.24
VVKFYWCIVQCCTWNGMKSH	8.363 ± 0.067
VVLRHHLFSSALYICMRGIQ	inactive
VVLRVLISFSHSTIRLEGLV	2.84 ± 0.093
VVMNLMEFMVRVSVLDNAEG	4.47 ± 0.075
VVQQLIRKITVFSLRLVLNK	4.16 ± 0.073
VVRGIRVTR	0.116 ± 0.28
VVRKGCL	-0.86 ± 1.1
VVRMVHLSADFQGK	5.26 ± 0.095
VVRSRW	0.372 ± 0.42
VVRYLPCRRLPVWWVVCYEI	0.488 ± 0.29
VVSGTLKKMGVFGTSAIISE	0.494 ± 0.8
VWELDRVVR	0.783 ± 0.53
VWFFGSYHVCWDCTF	0.378 ± 0.74
VWKNPYIGVHLLHDLKS	-0.391 ± 0.21
VWLDIYSQLEDENVYSSYLD	2.44 ± 0.086
